The values that follow come from publication PMC9686918 (2022).

For test [1], the target named is T1, Methylglyoxal-modified human serum albumin (HSA-MG) (Homo sapiens, UniProt P02768). Nature of the test: ELISA (Scatchard plot). (In general: An ELISA detects its analyte on a solid surface through an enzyme-linked reagent.)
Test [2] addresses T1, Methylglyoxal-modified human serum …. Nature of the test: peroxidase activity inhibition (ABTS varied).
Test [3] shares this target. Nature of the test: peroxidase activity inhibition (ABTS, H2O2 varied).
Test [4] shares this target. Nature of the test: chlorinating activity inhibition (celestine blue B, H2O2 varied).
For test [5] the target is unchanged. Nature of the test: chlorinating activity inhibition (celestine blue B, NaCl varied).

B1: Myeloperoxidase (protein)
chain: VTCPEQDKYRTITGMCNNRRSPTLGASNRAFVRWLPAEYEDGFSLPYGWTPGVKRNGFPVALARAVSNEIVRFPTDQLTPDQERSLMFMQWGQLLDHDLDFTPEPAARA
modifications: methylglyoxal-modified HSA
In general, Kd refers to the concentration at which binding is half-saturated. Higher therefore signals a looser complex. As a reminder, the Ki is a measure of affinity in units of concentration, obtained from inhibition or displacement. Read a low Ki as higher affinity. For B1, the affinity in test [1], expressed as Kd, was 1.5 nM. Moreover, the Ki in test [2] is 1080 nM; in test [3] it was 840 nM; in test [4] it was 800 nM; in test [5], 940 nM.
